Laboratory results: patent publication US20200262920A1 (AMPHIVENA THERAPEUTICS, published 2020)

Assays:
human CD33 [1] = target: T1, human CD33 (human, UniProt P20138 18-364); test: cell-based or functional assay
human CD3 [2] = target: T2, human CD3 (human, UniProt P07766 23-207; P09693 23-182; P04234 22-171; P20963 22-164); test: cell-based or functional assay
human CD33 [3] = target: T1, human CD33; test: flow cytometry, HL-60 cells
human CD3 [4] = target: T2, human CD3; test: flow cytometry, human T-cells
human CD33 [5] = target: T1, human CD33; test: flow cytometry titration, KG-1 cells
Experimental: (§1) Cells were incubated with 100 μL of serial dilutions of CD33/CD3 2×2 T-cell engagers. After washing three times with FACS buffer the cells were incubated with 0.1 mL of 10 μg/mL mouse monoclonal anti-His antibody in the same buffer for 45 min on ice. After a second washing cycle, the cells were incubated with 0.1 mL of 15 μg/mL FITC-conjugated goat anti-mouse IgG antibodies under the same conditions as before. As a control, cells were incubated with the anti-His IgG followed by the FITC-conjugated goat anti-mouse IgG antibodies without anti-CD33 2×2 T-cell engagers. The cells were then washed again and resuspended in 0.2 mL of FACS buffer containing 2 μg/mL propidium iodide (PI) in order to exclude dead cells. The fluorescence of 1×10⁴ living cells was measured using a Beckman-Coulter FC500 MPL flow cytometer using the MXP software (Beckman-Coulter, Krefeld, Germany) or a Millipore Guava EasyCyte flow cytometer using the Incyte software (Merck Millipore, Schwalbach, Germany). Mean fluorescence intensities of the cell samples were calculated using CXP software (Beckman-Coulter, Krefeld, Germany) or Incyte software (Merck Millipore, Schwalbach, Germany). After subtracting the fluorescence intensity values of the cells stained with the secondary and tertiary reagents alone the values were used for calculation of the KD values with the equation for one-site binding (hyperbola) of the GraphPad Prism (version 6.00 for Windows, GraphPad Software, La Jolla Calif. USA). […]

human CD33 [6] = target: T1, human CD33; test: flow cytometry titration, HL-60 cells
Experimental: as §1

human CD33 [7] = target: T1, human CD33; test: flow cytometry titration, U-937 cells
Experimental: as §1

human CD3 [8] = target: T2, human CD3; test: flow cytometry titration, T cells (human CD3+)

T1 sequence (P20138 18-364): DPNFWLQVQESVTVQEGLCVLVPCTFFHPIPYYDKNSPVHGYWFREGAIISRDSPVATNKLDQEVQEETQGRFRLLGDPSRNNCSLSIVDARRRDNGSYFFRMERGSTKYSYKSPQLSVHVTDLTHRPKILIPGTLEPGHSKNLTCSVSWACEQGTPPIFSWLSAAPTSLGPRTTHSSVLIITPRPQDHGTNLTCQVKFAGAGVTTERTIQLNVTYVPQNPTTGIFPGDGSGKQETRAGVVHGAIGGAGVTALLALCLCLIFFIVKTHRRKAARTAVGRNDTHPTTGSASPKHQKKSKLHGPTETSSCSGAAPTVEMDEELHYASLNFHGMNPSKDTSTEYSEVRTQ
T2 sequence (P07766 23-207, chain 1 of 4): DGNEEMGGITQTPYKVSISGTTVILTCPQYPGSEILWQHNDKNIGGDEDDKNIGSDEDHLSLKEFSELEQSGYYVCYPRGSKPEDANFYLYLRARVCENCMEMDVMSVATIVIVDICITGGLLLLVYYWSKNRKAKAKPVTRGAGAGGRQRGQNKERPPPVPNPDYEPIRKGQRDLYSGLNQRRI
T2 sequence (P09693 23-182, chain 2 of 4): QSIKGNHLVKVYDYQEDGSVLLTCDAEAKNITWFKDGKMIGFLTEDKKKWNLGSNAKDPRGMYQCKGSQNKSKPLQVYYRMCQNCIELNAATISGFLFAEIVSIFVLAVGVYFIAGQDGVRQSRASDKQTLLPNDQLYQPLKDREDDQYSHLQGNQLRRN
T2 sequence (P04234 22-171, chain 3 of 4): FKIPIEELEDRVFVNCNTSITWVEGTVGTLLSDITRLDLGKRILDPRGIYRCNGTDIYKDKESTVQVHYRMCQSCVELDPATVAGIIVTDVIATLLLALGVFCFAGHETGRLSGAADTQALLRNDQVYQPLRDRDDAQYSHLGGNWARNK
T2 sequence (P20963 22-164, chain 4 of 4): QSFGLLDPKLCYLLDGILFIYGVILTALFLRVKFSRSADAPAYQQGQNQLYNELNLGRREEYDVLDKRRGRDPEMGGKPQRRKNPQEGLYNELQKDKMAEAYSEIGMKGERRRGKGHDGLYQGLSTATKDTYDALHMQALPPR

| CD25 Induction EC50 (human CD3 [2]) [nM] | CD69 Induction EC50 (human CD3 [2]) [nM] | T cell Proliferation in PBMC EC50 (human CD3 [2]) [nM] | Kd (human CD33 [3]) [nM] | Kd (human CD3 [4]) [nM] | Kd (human CD33 [5]) [nM] | Kd (human CD33 [6]) [nM] | Kd (human CD33 [7]) [nM] | Kd (human CD3 [8]) [nM] | Binder | EC50 on HL-60 (cytotoxicity) (human CD33 [1]) [nM] |
| --- | --- | --- | --- | --- | --- | --- | --- | --- | --- | --- |
| 0.01 | 0.006 | 0.006 | 0.5 | 1.9 | 1 | 0.5 | 1.7 | 1.9 | CD33/CD3 2×2 T-cell engager 10 (bispecific antibody, Non-covalent homodimer) DIQMTQSPSSLSASVGDRVTITCRSSTGAVTTSNYANWVQQKPGKAPKGLIGGTNKRAPGVPSRFSGSLIGDKATLTISSLQPEDFATYYCALWYSNLWVFGQGTKVEIKGGSGGSQVQLVQSGAEVKKPGASVKVSCKASGYTFTSYDINWVRQAPGQGLEWMGWMNPNSGNTGFAQKFQGRVTMTRDTSTSTVYMELSSLRSEDTAVYYCARDRANTDYSFGMDVWGQGTLVTVSSGGSGQSVLTQPPSASGTPGQRVTISCSGSRSNIGSNTVNWYQQLPGTAPKLLIYGNNQRPSGVPDRFSGSKSGTSASLAISGLQSEDEADYYCATWDDSLIGWVFGGGTKLTVLGGSGGSEVQLVESGGGLVQPGGSLRLSCAASGFTFSTYAMNWVRQAPGKGLEWVGRIRSKYNNYATYYADSVKDRFTISRDDSKNSLYLQMNSLKTEDTAVYYCARHGNFGNSYVSWFAYWGQGTLVTVSSAAAGSHHHHHH | 0.007 |
| 0.094 | 0.062 | 0.044 | 0.5 | 79.3 | 0.5 | 0.5 | 1.7 | 79.3 | CD33/CD3 2×2 T-cell engager 04 (bispecific antibody, Non-covalent homodimer; also called 2×2 T-cell engager 4) DIQMTQSPSSLSASVGDRVTITCRSSTGAVTTSNYANWVQQKPGKAPKGLIGGTNKRAPGVPARFSGSGSGTDFTLTISSLQPEDFATYYCALWYSNLWVFGQGTKVEIKGGSGGSQVQLVQSGAEVKKPGASVKVSCKASGYTFTSYDINWVRQAPGQGLEWMGWMNPNSGNTGFAQKFQGRVTMTRDTSTSTVYMELSSLRSEDTAVYYCARDRANTDYSLGMDVWGQGTLVTVSSGGSGQSVLTQPPSASGTPGQRVTISCSGSRSNIGSNTVNWYQQLPGTAPKLLIYGNNQRPSGVPDRFSGSKSGTSASLAISGLQSEDEADYYCATWDDSLIGWVFGGGTKLTVLGGSGGSEVQLVESGGGLVQPGGSLRLSCAASGFTFSTYAMNWVRQAPGKGLEWVGRIRSKYNNYATYYADSVKDRFTISRDDSKNSLYLQMNSLKTEDTAVYYCARHGNFGNSYVSWFAYWGQGTLVTVSSAAAGSHHHHHH | 0.0018 |
| 0.011 | 0.007 | 0.009 | 0.5 | 2.4 | 0.3 | 0.5 | 2.2 | 2.4 | CD33/CD3 2×2 T-cell engager 09 (bispecific antibody, Non-covalent homodimer; also called 2×2 T-cell engager 9) DIQMTQSPSSLSASVGDRVTITCRSSTGAVTTSNYANWVQQKPGKAPKGLIGGTNKRAPGVPSRFSGSLIGDKATLTISSLQPEDFATYYCALWYSNLWVFGQGTKVEIKGGSGGSQVQLVQSGAEVKKPGASVKVSCKASGYTFTSYDINWVRQAPGQGLEWMGWMNPNSGNTGFAQKFQGRVTMTRDTSTSTVYMELSSLRSEDTAVYYCARDRANTDFSYGMDVWGQGTLVTVSSGGSGQSVLTQPPSASGTPGQRVTISCSGSRSNIGSNTVNWYQQLPGTAPKLLIYGNNQRPSGVPDRFSGSKSGTSASLAISGLQSEDEADYYCATWDDSLIGWVFGGGTKLTVLGGSGGSEVQLVESGGGLVQPGGSLRLSCAASGFTFSTYAMNWVRQAPGKGLEWVGRIRSKYNNYATYYADSVKDRFTISRDDSKNSLYLQMNSLKTEDTAVYYCARHGNFGNSYVSWFAYWGQGTLVTVSSAAAGSHHHHHH | 0.0068 |
| 0.042 | 0.027 | 0.004 | 0.2 | 69.8 | 0.3 | 0.2 | 0.9 | 69.8 | CD33/CD3 2×2 T-cell engager 02 (bispecific antibody, Non-covalent homodimer; also called 2×2 T-cell engager 2) DIQMTQSPSSLSASVGDRVTITCRSSTGAVTTSNYANWVQQKPGKAPKGLIGGTNKRAPGVPARFSGSGSGTDFTLTISSLQPEDFATYYCALWYSNLWVFGQGTKVEIKGGSGGSQVQLVQSGAEVKKPGASVKVSCKASGYTFTSYDINWVRQAPGQGLEWMGWMNPNSGNTGFAQKFQGRVTMTRDTSTSTVYMELSSLRSEDTAVYYCARDRAVTDYYYGMDVWGQGTLVTVSSGGSGQSVLTQPPSASGTPGQRVTISCSGSRSNIGSNTVNWYQQLPGTAPKLLIYGNNQRPSGVPDRFSGSKSGTSASLAISGLQSEDEADYYCATWDDSLIGWVFGGGTKLTVLGGSGGSEVQLVESGGGLVQPGGSLRLSCAASGFTFSTYAMNWVRQAPGKGLEWVGRIRSKYNNYATYYADSVKDRFTISRDDSKNSLYLQMNSLKTEDTAVYYCARHGNFGNSYVSWFAYWGQGTLVTVSSAAAGSHHHHHH | 0.0005 |
| 0.117 | 0.087 | 0.063 | 1.1 | 81.9 | 1.8 | 1.1 | 8.9 | 81.9 | CD33/CD3 2×2 T-cell engager 03 (bispecific antibody, Non-covalent homodimer; also called 2×2 T-cell engager 3) DIQMTQSPSSLSASVGDRVTITCRSSTGAVTTSNYANWVQQKPGKAPKGLIGGTNKRAPGVPARFSGSGSGTDFTLTISSLQPEDFATYYCALWYSNLWVFGQGTKVEIKGGSGGSQVQLVQSGAEVKKPGASVKVSCKASGYTFTSYDINWVRQAPGQGLEWMGWMNPNSGNTGFAQKFQGRVTMTRDTSTSTVYMELSSLRSEDTAVYYCARDRANTDYSFGMDVWGQGTLVTVSSGGSGQSVLTQPPSASGTPGQRVTISCSGSRSNIGSNTVNWYQQLPGTAPKLLIYGNNQRPSGVPDRFSGSKSGTSASLAISGLQSEDEADYYCATWDDSLIGWVFGGGTKLTVLGGSGGSEVQLVESGGGLVQPGGSLRLSCAASGFTFSTYAMNWVRQAPGKGLEWVGRIRSKYNNYATYYADSVKDRFTISRDDSKNSLYLQMNSLKTEDTAVYYCARHGNFGNSYVSWFAYWGQGTLVTVSSAAAGSHHHHHH | 0.0036 |
| 0.092 | 0.091 | 0.089 | 0.6 | 94.2 | 0.9 | 0.6 | 7.1 | 94.2 | CD33/CD3 2×2 T-cell engager 01 (bispecific antibody, Non-covalent homodimer; also called 2×2 T-cell engager 1) DIQMTQSPSSLSASVGDRVTITCRSSTGAVTTSNYANWVQQKPGKAPKGLIGGTNKRAPGVPARFSGSGSGTDFTLTISSLQPEDFATYYCALWYSNLWVFGQGTKVEIKGGSGGSQVQLVQSGAEVKKPGASVKVSCKASGYTFTSYDINWVRQAPGQGLEWMGWMNPNSGNTGFAQKFQGRVTMTRDTSTSTVYMELSSLRSEDTAVYYCARDRANTDFSYGMDVWGQGTLVTVSSGGSGQSVLTQPPSASGTPGQRVTISCSGSRSNIGSNTVNWYQQLPGTAPKLLIYGNNQRPSGVPDRFSGSKSGTSASLAISGLQSEDEADYYCATWDDSLIGWVFGGGTKLTVLGGSGGSEVQLVESGGGLVQPGGSLRLSCAASGFTFSTYAMNWVRQAPGKGLEWVGRIRSKYNNYATYYADSVKDRFTISRDDSKNSLYLQMNSLKTEDTAVYYCARHGNFGNSYVSWFAYWGQGTLVTVSSAAAGSHHHHHH | 0.0019 |
| – | – | – | – | – | 0.5 | 0.3 | 1.8 | 2.4 | CD33/CD3 2×2 T-cell engager 08 (bispecific antibody, Non-covalent homodimer; also called 2×2 T-cell engager 8) QSVLTQPPSASGTPGQRVTISCSGSRSNIGSNTVNWYQQLPGTAPKLLIYGNNQRPSGVPDRFSGSKSGTSASLAISGLQSEDEADYYCATWDDSLIGWVFGGGTKLTVLGGSGGSEVQLVESGGGLVQPGGSLRLSCAASGFTFSTYAMNWVRQAPGKGLEWVGRIRSKYNNYATYYADSVKDRFTISRDDSKNSLYLQMNSLKTEDTAVYYCARHGNFGNSYVSYFAYWGQGTLVTVSSGGSGGSDIQMTQSPSSLSASVGDRVTITCRSSTGAVTTSNYANWVQQKPGKAPKALIGGTNKRAPGVPSRFSGSLIGDKATLTISSLQPEDFATYYCALWYSNLWVFGQGTKVEIKGGSGGSQVQLVQSGAEVKKPGASVKVSCKASGYTFTSYDINWVRQAPGQGLEWMGWMNPNSGNTGFAQKFQGRVTMTRDTSTSTVYMELSSLRSEDTAVYYCARDRANTDFSYGMDVWGQGTLVTVSSAAAGSHHHHHH | 0.0018 |
